B1: WDR88 (parent)
chain: LLTITKAHSNAISNCCFTFSGHFL
B2: POMT2 (parent)
chain: VKYNSCADRPFSAPWWFWLSLTGV

Variants of: B1
Assay: protein stability index of a GFP-peptide fusion (GPS, HEK-293T) (PSI 1-6); higher = more stable
Details: c terminus: a fixed tail appended
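Also: lentivirally expressed fusions sorted by FACS into six bins by GFP to DsRed ratio, PSI derived from sequencing read proportions per bin multiplied by bin number.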

Protein stability index of substitutions, site by site:
T5: D 1.65; N 1.67; P 2.98; R 2.72; Y 3.34; K 2.37; S 3.33; H 2.9; Q 1.69; F 4.83; V 3.03; G 2.73; I 2.02; M 3.85; A 3.41; L 2.03; E 2.58; C 2.54
A7: G 3.76; Y 3.09; Q 3.22; S 2.54; P 2.04; M 2.8; D 1.86; K 2.4; E 3.31; N 2.1; H 3.42; I 2.95; L 3.04; T 2.58; V 2.76; W 4.07; F 2.86; C 2.75; R 3.62

Variants of: B2
Assay: as above
Details: c terminus: a fixed tail appended

Protein stability index: each site, then its substitutions
P14: F 1.35; R 3.92; V 2.71; G 2.4; C 2.27; Y 1.21; A 2.21
L19: E 1.65; N 2.79; I 1.76; F 2.95; T 1.64
A7: Y 1.39
C6: G 1.73; D 2.84; N 1.02; I 2.36; L 2.11; T 1.92; S 2.14; W 1
K2: F 2.75; Y 3.34; N 2.4; T 1.61; R 2.2
V1: C 2.99; L 1.66; A 3.3; R 1.98; H 1.1
A13: G 2.11; S 2.06; H 1.18; R 1; E 2.18
V24: A 2.85; M 2.61; I 2.98; N 1.81; T 1.5; Y 2.1; L 5.16; R 1.87; E 1
S12: A 3.27; I 3.2; F 2.65
W18: C 2.54; A 2.22; G 3.3; T 3.52; V 2.56; Y 2.04; S 3.44
W16: P 2.08; D 3.79; V 2.01; Q 1.78; L 1.8; T 3.23; I 3.2
Y3: Q 1.41; K 2.11; D 2.19; P 2.55
S5: D 4.19; P 2.39; A 4.07
W15: E 3.49; H 2.54; K 3.58
F17: W 1.33; T 3.3; V 2.16; K 2.65
R9: L 2; G 3.51; F 3.16; W 3.34; A 2.8; N 3.39; I 3.57
L21: N 2.88; A 3.62; P 2.68; K 1.12
G23: F 2.65; W 1.21; S 1.47; C 1.24; T 2.04; V 2.98; A 1.77; N 1.69; E 5.35; Q 4.6; M 1.55; I 2.22
D8: W 1.26; G 2.4; T 3.21; R 3.03; P 3.01; I 3.67; Y 2.29; S 2.54; L 3
F11: G 2.84; S 1
S20: I 2.08; M 3.17; C 2.22; Y 2.25; L 1.47; H 2.9; F 1.04
T22: K 2.12; I 1.56; N 1.29; V 3.31; A 1.62
N4: V 3.46; E 3.12; T 3.25
P10: E 1.63; A 2.24; L 2.5; M 1.94; K 4.18
